Assay results as given in the DeepSol protein solubility set.

Experiment: soluble on expression in E. coli; label from the status in PepcDB or PDB records

Soluble on expression in E. coli, not soluble:
MGSDKIHHHHHHMTLRLHEYVEKESFNHPYTFVAAQTGLDEKTVRDIFNARAEFLGRWHRFETPRILGIDELYLNKRYRCILTNIEERTLLDLLATRRQNVVTNYLMKLKDRQKVEIVSMDMWNPYRAAVKAVPPQARIVVDKFHVVRMANDALERVRKGLRKELKPSQSRTLKGDRKILLKRAHEVSDRERLIMETWTGAFPQLLAAYEHKERFYGIWDATTRLQAEAALDEWIATIPKGQKEVWSDLVRAVGNWREETMTYFETDMPVTNAYTESINRLAKDKNREGRGYSFEVMRARMLYTTKHKKKAPTAKVSPFYKKTIGYGLPDFAEELNYGVDLSTI
MGSDKIHHHHHHMTLTSDSWLTLIVSLPSASATARMRIWRAVKALGCAALRDGAYLLPAQAEQAAQLQMLADEALQEGGQAWLLQVQALDLAEQATFQALFDRTADYTPWLEELAQARQTLSALSAAELQRTQRKHARAYEVIRKIDFFPGETSIRADAQWRDFANALESMQSPGEPQPMAGRIARRDRMQYQGRVWATRRHLWVDRVASAWLIQRFIDPHARFLWLNTAADCPSDALGFDFDGATFSHVGERVTFEVLLASFGLEDDRGLSRLGAMVHALDVGGATTPEASGFEAVLAGARKRWPDDDALLVDIGGVLDSLHAHFSSSRKT
MGSDKIHHHHHHMTNAFKGIPEELLKPHASPCVSIFMPTSRTFPDNTQDPVRFKNLVSRAEADGIAFSTKREMAPLIERLRLLQDDASFWNHTLDGLAVFISPDYFRIFRLQQSVLEQAHVTDAFYIRPLIRIYQIVERFQVLALTRSEVKLYEGTRDHLDEIELAPEVPKTMTDALGTEITPPHMTIASYGGTGTAMRHGHSSRKDEEALDNERFFRAVDQGINEYHSSSSGLPLVLVALPEHQGLFRSISRNQRLVAEGIEIDPAALGLEAMRQKAWQVMEPYRERKIDQMIARFREAEGGKLGSDNPYAIAIAAVAGNVSHLLLDGQKFWPGQIDPVSGDILLDEASQASGRDVFEELGAAVLARGGEVLVLPSERMPSASGVAAIFRHD
MGSDKIHHHHHHMTNFPPLLLAYGLDLEGPIHRGIATYAKAMIRLLHQSGYPLHLLTGAGGLAQGRLASLSLHRHLDQPSNWSRIQLAQSYFAERLGRSRQTPIKVDSNLIIGDRIQYLQQIDQLINHPFFYRKLRLQAKISDRPFFLKTKNYPVVLTSSPLNLRVSSSSRLIQVIHDLIPLNYLRHPDEAVTFLRRLQATADYSDRIICLSETTRQQFLELFPQAESRTLTLYQPVSFSAEALALTDRPDFAAAVLRRYGLERDRYFFFVGAIEPRKNLETLIAAQQVAVLRTQLPLVIGGTADVHTQDYAQQLQQRSRSTDQILWTGYLTEAEKICLLRHCRALTFLSWQEGFGIPMIEAALCGRSSLLANIPVLREVMGAAATYANPQHPLEVADQLIQLGCYPAQLSELRSRATQQIQAFADGQVQQQIQQVLQSLIS
MGSDKIHHHHHHMTNVSGYHRPELHITAESGVLFAPAGVLLDDDTWHFFHQYRPSPDHGPRWAHQFAERTPFVWDICDDVLAPEGDETQVRAGSVVSNNGGVDLYFTSVVGPTSTIQLAHINNIRGTTELINEDELGLDPDVSRIGEVVGNTDGYVKFRSPCVIPGWEDQGNRDEGHSGWLMLAVTGPVEAPTVVVLDSPDGREWSITGPLSLNGLSGLESDEVLVAPRMIRLRDEVDHEIYDVLIVTIEQDGIDISGYLVGQLNGSEFDVKTPFTRIDFGHDFSRPRNTNYAETTIGYDFAHIFGLMNGVGRLDSPTEHLSWKEEGWANAISFPRIVTLQDGTVFQTPPEGLLDAIHESEAAAGWTGLCEIPSNSAVEVALKDQEGEIAATITHRHNQLVVDRSMNPNHAGDPHAIAPLTDDETDSLFIVVDGSTVEVFADGGYVSMASRVYFNNGPFSEFEVTTTGDASIIRQESHFPVDFSSVSLDIDDLTALMQFDENEPHEGPVR
MGSDKIHHHHHHMTPQPLADNLSPPDPARLAQSIKDWGRELGFQQVGISDVELGEHEAHLQRWLEAGYHGEMDYMAAHGSKRSRPAELVPGTLRVISLRMDYLPGDTRMAQVLATPEKAYVSRYALGRDYHKLIRKRLQQLAERIQAEVGPFGFRAFVDSAPVLEKAIAEQAGLGWIGKNTLVLNRKAGSYFFLGELFVDMPLPVDPAMDSEHCGRCSACLDICPTAAFVGPYRLDARRCISYLTIEYKGAIPLELRPLIGNRVFGCDDCQIVCPWNRFARPTGQGDFQPRHSLDNAELAELFLWSEEEFLGRTEGSPLRRAGYERWLRNLAVGLGNAPSTIPVLEALKARRGFPSELVREHVEWALRRHGET
MGSDKIHHHHHHMTPTAFNTGRVQVNKTIAELRSLGKDARERVPFSQLGQYQPLDRDSNQLMDRIRRLLIPELLPERTRRMAASPFAFFRGTAELMEADLRQQPNSTIETFVCGDAHIGNFGFYASPERRLLFDLNDFDEAGINPWEWDLKRLLVSVLLAAQANGIKEKKIKQFLPTVAASYRKSMKQMFTQTTLARFYPLNDVEKLIQASALTDADSQLLMTIINRASKRDSEQVVRKFTTLDSRGNLCFRENAPKTTHVTDDVTTHIATYFAAYRQTVRPDVNLLLSQYHLTDVVRHSVGVGSFGSRCYLVLLTSIDGSHLVLQIKEALPTRQQGSQTLAQLTVAQEQTEGQRIVDCQKILQSASDSFLGYFAGNQHSFYVRQFRDMKESIDLTQLDWGQLQTYANTCAWTLAIAHCQSPTAAMIRGYIGGGKQFDEQLAAFASAYAQQVQTDYESFVAYRLPTKQP
MGSDKIHHHHHHMTPTYDTLIIGAGIAGASLGYRLAGQQRVLLVERESQPGYHSTGRSAAMFMEAYGTPQIQALTRASRAFYEAPPQGFCEHPLLEPRGCLYVASLEQRELLEQTFAQNLANGTEVTLLDRDAALALIPSLRGETLAGAVLEPGAMDLDVHALHQGFLRGYRTAGGELRCNAELIQACYLDDVWQVELADGSRLQARCLVNAAGAWADRVAEQCGVARIGLQPCRRSAFTFPGPAEQDFTRWPAVIGVDESFYFKPDAGQLLGSPANADPVEPQDAAPEEFDVALGIYNIEAMTTLAIRRPSHTWAGLRSFVADGDLVIGFDAHAPAFFWLAAQGGYGIQSAAGASRLAADLLLGQPLCASLVSQGVAPERLSPARFQQP
MGSDKIHHHHHHMTQLELLLERIIDRVNVNLRHQKFDVGDYVRRQTPHLHYSKFYAFYGLSADDPVHFHFKNSSLAGSYLLGRVNVLHSALYKSDIRGDELKRKGQHFVCDGKMIPLHDDEVITIKDSFLNKTLVHSNSHDPESPEEFTIRNTVAMPYANIHGSLTEGSFIGSFATVDLSTIHNSVVRYFSYVQTGELVGKCVEPGQIWIKSGDELEFHYSFDKAILDKYISQEAGSCPTGVLMEFVEVRQEDFEEVFASGHMASGAGSASGASVSGYAVIKGDTVIGENVLVSQRAYLDNAWMGKGSNAQENCYIINSRLERNCVTAHGGKIINAHLGDMIFTGFNSFLQGSESSPLKIGDGCVVMPHTIIDLEEPLEIPAGHLVWGYIRNKADLAAHSISFEEFAKVDGEVTMGRMTFRGKGGPFLDSFKKRIKRILSENGAFFDGSEGTGHAQKGKNFTFNIIQPYQDGDPRGMYPTILIQPNNGS
MGSDKIHHHHHHMTQLPNFSQSLSQLIACPSISSTQPSWDQGNKEVIQLLATWFEQLDFNIEIQAVPNTSNKFNLLAKLGSGEGGLLLAGHSDTVPFDENRWQSNPHTVVNQDDKFFGLGTCDMKGFFAFILQVCKNLRADQLKKPLYILATADEETTMAGARFFAKSQAIKPDVAIIGEPTNLVPVVMHKGHMSHRISVEGKSGHSSKPNLGINAIEIMYKVIGQLIELKEKFQLNYENQAFDVPAPTLNLGAISGGDNANRICGHCHLDIDLRSLPGMSDDELINWLSEALKPLAELYPGRISFEEMHPSSPSFEQKKPSTLIDIAQEISGHSCCAVNYATEAPYIQQLGCQTIVLGPGSIDQAHQPNEFLAHSEIDKTEKLLTKMIQHYCL
